Laboratory results as given in patent US20260008830A1.

Target: T1, IL-22 receptors R1 and R2 on HEK-Blue IL-22 reporter cells (UniProt Q8N6P7)
T1 sequence (looked up) 1: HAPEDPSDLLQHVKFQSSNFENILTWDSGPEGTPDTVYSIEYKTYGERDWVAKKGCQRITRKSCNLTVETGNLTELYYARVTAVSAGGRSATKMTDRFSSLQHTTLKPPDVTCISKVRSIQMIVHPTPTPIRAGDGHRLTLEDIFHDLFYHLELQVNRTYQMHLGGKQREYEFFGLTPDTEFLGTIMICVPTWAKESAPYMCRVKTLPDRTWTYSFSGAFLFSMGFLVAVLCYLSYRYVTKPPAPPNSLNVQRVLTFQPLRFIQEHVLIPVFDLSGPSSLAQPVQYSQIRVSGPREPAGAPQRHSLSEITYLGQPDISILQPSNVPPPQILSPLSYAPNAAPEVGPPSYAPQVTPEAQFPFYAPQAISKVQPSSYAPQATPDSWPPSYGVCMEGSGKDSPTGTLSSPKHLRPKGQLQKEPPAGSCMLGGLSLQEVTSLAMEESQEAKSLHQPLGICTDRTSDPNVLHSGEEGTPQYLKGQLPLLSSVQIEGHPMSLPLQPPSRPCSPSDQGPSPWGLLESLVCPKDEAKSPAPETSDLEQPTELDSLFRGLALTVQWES
T1 sequence (looked up) 2: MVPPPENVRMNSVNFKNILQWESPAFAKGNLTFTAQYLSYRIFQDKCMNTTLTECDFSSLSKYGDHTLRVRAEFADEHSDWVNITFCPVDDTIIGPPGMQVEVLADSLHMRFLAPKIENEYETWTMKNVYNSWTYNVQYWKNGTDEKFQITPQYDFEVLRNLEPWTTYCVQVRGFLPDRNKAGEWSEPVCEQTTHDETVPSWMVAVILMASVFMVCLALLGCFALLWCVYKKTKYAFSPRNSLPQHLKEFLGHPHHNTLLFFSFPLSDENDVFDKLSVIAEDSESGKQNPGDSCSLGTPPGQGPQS
Assay: cell-based or functional assay

Kd (apparent, HEK-Blue IL-22 reporter): 0.017 nM
B1: IL22 WT (monomeric IL22 based on the IL22 crystal, PDB 3dlq, expressed in bacteria) (ligand)
chain: ARLDKSNFQQPYITNRTFMLAKEASLADNNTDVRLIGEKLFHGVSMSERCYLMKQVLNFTLEEVLFPQSDRFQPYMQEVVPFLARLSNRLSTCHIEGDDLHIQRNVQKLKDTVKKLGESGEIKAIGELDLLFMSLRNACI
